In patent US8987192B2, “Potent and selective mediators of cholesterol efflux” (The Regents of the University of California, priority 2006, dated 2015):
Entries after “also recorded” stand apart in the source; their conditions may differ. Where a SMILES comes first, the peptide text is derived from it. Where no end group is shown, it is not given here.

Columns and labels:
ABCA1 [1] = test: Cholesterol efflux in the absence and presence of ABCA1 (mouse macrophages and HeLa cells transfected with ABCA1 cDNA); assay type: cell-based; settings: 8 hours, saturating peptide >30-fold Km; for requirement of ABCA1 for cholesterol efflux activity: mouse macrophages and ABCA1-transfected HeLa
Text: The large excess of polypeptide was provided to determine the extent (if any) of non-specific efflux, in the absence of ABCA1 induction.

ABCA1 [2] = molecular target: ABCA1 (Mus musculus, UniProt P41233); test: Cholesterol efflux from [3H]cholesterol-labeled ABCA1-expressing J774 mouse macrophages; assay type: cell-based; design: to upregulate cellular ABCA1 protein; endogenous in cells; host or cells: J774 mouse macrophages
Chain of ABCA1 (Mus musculus, UniProt P41233) (P41233 whole entry): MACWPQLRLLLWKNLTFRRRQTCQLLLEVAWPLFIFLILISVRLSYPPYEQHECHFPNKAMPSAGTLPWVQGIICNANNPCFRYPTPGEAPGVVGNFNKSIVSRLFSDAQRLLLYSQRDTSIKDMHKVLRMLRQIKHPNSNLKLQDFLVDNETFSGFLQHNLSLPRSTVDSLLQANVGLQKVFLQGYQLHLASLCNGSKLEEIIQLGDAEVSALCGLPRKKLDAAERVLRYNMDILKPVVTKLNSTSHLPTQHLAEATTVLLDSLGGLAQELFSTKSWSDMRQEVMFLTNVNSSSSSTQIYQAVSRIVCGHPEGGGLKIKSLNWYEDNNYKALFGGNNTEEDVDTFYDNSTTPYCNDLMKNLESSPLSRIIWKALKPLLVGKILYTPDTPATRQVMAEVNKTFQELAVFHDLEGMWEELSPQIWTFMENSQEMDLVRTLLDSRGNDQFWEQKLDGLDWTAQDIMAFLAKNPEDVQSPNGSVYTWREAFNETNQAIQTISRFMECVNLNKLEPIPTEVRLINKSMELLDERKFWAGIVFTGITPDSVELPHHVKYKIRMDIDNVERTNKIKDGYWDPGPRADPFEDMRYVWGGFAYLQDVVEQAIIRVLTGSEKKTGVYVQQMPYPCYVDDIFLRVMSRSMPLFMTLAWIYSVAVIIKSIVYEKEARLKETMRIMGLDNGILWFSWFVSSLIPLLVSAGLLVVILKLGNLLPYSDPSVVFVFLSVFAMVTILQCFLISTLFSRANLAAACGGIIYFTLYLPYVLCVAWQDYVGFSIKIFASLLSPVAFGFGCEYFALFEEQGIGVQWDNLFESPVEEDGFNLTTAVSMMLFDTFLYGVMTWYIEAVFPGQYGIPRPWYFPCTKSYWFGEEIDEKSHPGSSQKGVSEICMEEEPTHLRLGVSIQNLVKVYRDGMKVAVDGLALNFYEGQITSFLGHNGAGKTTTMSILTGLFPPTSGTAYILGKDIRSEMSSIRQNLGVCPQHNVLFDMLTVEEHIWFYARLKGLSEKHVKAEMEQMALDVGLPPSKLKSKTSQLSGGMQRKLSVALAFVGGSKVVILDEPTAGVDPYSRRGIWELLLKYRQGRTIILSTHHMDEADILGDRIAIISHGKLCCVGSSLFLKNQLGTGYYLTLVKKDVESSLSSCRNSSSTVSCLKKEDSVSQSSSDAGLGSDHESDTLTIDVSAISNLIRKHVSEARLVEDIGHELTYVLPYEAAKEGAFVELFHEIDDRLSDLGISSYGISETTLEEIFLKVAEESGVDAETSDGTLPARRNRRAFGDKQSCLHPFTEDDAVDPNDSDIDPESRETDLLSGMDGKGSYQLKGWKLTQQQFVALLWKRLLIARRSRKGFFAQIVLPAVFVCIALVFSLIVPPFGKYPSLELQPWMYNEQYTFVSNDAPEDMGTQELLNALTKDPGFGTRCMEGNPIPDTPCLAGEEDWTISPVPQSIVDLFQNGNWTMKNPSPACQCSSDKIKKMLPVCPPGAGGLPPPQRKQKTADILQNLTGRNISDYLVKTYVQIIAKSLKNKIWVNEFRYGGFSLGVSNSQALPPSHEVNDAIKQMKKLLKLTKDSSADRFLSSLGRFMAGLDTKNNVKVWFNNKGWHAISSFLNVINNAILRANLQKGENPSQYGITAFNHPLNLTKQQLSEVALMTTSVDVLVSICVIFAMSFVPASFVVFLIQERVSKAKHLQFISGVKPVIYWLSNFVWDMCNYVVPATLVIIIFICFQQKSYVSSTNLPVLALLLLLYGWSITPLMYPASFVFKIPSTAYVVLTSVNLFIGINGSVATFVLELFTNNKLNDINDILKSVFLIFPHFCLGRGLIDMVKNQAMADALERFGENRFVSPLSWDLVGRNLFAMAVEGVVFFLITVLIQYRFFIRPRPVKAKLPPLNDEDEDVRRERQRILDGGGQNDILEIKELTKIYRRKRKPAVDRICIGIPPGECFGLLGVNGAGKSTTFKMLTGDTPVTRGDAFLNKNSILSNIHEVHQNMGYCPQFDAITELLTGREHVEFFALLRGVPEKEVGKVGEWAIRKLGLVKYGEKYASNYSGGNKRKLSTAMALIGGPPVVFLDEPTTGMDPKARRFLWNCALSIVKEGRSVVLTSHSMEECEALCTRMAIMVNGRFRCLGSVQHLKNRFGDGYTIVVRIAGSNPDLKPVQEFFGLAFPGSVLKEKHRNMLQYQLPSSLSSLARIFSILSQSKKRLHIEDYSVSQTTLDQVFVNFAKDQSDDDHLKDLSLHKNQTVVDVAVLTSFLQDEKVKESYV
Description: In some embodiments, a polypeptide known to mediate cholesterol efflux (e.g., helix 9/10 of Apo A-I) is used to screen for additional mediators of cholesterol efflux in a cell based assay. For example, cell lines in which cholesterol efflux can be enhanced using a cAMP analog that up-regulates ABCA1 protein expression (e.g., J774 macrophages) can conveniently be used to assess the ability of a polypeptide of the present invention to mediate cholesterol efflux. The cells are incubated with labeled cholesterol (e.g., [^3H]cholesterol) under conditions appropriate for cholesterol uptake by the cells. Thus, cAMP or cAMP analogs (e.g., CPT-cAMP) are incubated with the cells for a suitable time before the initiation of cellular cholesterol efflux, i.e., prior to contacting the cells with a test polypeptide. Measurement of labeled cholesterol appearing in the medium is used to determine the cholesterol efflux mediating activity of the test polypeptide.
J774 mouse macrophages labeled with [^3H]cholesterol were treated (20 h) with 22-hydroxycholesterol (10 μM)/cis-retinoic acid (10 μM) to upregulate cellular ABCA1 protein.
Mouse macrophages were labeled with [^3H]cholesterol and treated with a cAMP analog to induce ABCA1 expression. […] Km values were calculated using the Michaelis-Menton equation and GraphPad Prism4 software.
Inverted sequence peptides synthesized with all L-amino acids and all D-amino acids were tested for cholesterol efflux activity using ABCA1 expressing J774 macrophages.
Two peptide analogs were engineered; the first replacing glutamic acid residues (E) at position 8 and 15 with aspartic acid residues (D), i.e., E8, 15>D polypeptides, and the second, replacing E1, 7, 8, 15, 18, 19 with D, i.e., all D (Asp) polypeptide. Cholesterol efflux activity was determined using J774 macrophages treated with and without a cAMP analog to modulate ABCA1 expression.
The impact of the A12>L substitution was also tested for activity, which also expanded non-polar surface area.
1-palmitoyl-2-oleoyl-phosphatidylcholine (POPC) was used to evaluate the cholesterol efflux properties of a formulated polypeptide of the present invention. […] To test cholesterol efflux activity, J774 mouse macrophages were labeled with [^3H]cholesterol and treated with and without cAMP to modulate ABCA1 expression.

[3] = Pharmacokinetic analysis with monophasic decay model; assay type: in vivo
Text: Position 11, i.e., A, in the polypeptide of SEQ ID NO:4 can be substituted with other non-polar (hydrophobic) amino acids as well as other polar non-charged amino acids.

[4] = Pharmacokinetics of iodinated peptide in Sprague-Dawley rats; assay type: in vivo; settings: for Half-live: IP, time interval 0-30 hours
Description: An iodinated version of polypeptide of SEQ ID NO:4, which was modified to have a Y residue at the C-terminus, was administered intravenously to Sprague-Dawley rats. The kinetics reflected a biphasic elimination, which is typical of peptides. […] This distribution pattern resembles what has been reported for ApoA-I and HDL. […] (See, FIG. 23).
The bioavailability in percent was calculated from the area under the curve IP as divided by area under the curve IV after adjustment for residual activity and the bioavailability was about 40%.

[5] = test system: Apolipoprotein E knock-out mice; test: Atherosclerosis in Apolipoprotein E knock-out mice on Western diet, pooled series (Example 19); assay type: in vivo, mouse; settings: 30 mg/kg IP, 21 injections, pooled data of three series
Description: The polypeptide of SEQ ID NO:4 and its Y26 analog have been evaluated with respect to ability to inhibit atherosclerosis in Apolipoprotein E knock-out mice. The mice were given Western diet for 18 weeks and then randomized to receive saline, free polypeptide or polypeptide-phospholipid complex. […] The degree of atherosclerosis was then determined in whole aorta and aortic root/sinus. Three experimental series were performed. […] The results are equal to or better than previously have been obtained with IV infusions of 40 mg/kg Apolipoprotein A-I Milano/phospholipids complex into Apo E knock-out mice (Shah et al., Circ., 97:780-5, 1998).
As noted above, data from three experimental series were pooled. Pooling of data is justified as only minor changes in the procedures were made (21 injections at 30 mg/kg over 42 and 21 days, respectively), and the diet regimens and sources of mice and polypeptide, respectively, were the same. In the first experiment S26 was substituted for Y26.

EVRSKLEEWFAAFREFFEEFLARLKS (S1 amphipathic alpha-helix polypeptide core sequence selectively binds HDL, high-affinity ligand for ATP- binding cassette transporter A1 (ABCA1), ABCA1-lipid cholesterol efflux, ABCA1-stablization, anti-oxidant and anti-inflammatory activity) [SEQ ID NO:5]
non-specific efflux activity in the absence of ABCA1 (ABCA1 [1]): minimal
requirement of ABCA1 for cholesterol efflux activity (ABCA1 [1]): required ABCA1 for efflux activity
cholesterol efflux efficiency/potency on per molecule (molar) basis versus apolipoproteins (ABCA1 [2]; Km in molar units): activity similar to full-length Apo A-I, Apo E, and the C-terminal (CT) domain of Apo E
cholesterol efflux from macrophages not induced for ABCA1 (non-specific) (ABCA1 [2]; no cAMP): Low efflux

Apo A-I: full-length Apolipoprotein AI, polypeptide comprising 243 amino acids
requirement of ABCA1 for cholesterol efflux activity (ABCA1 [1]): required ABCA1 for activity
cholesterol efflux at low mass concentrations (ABCA1 [2]; increasing concentrations based on mass): largely ineffective

CC(C)C[C@H](NC(=O)[C@H](Cc1ccccc1)NC(=O)[C@H](CCC(=O)O)NC(=O)[C@H](CCC(=O)O)NC(=O)[C@H](C)NC(=O)[C@H](Cc1ccccc1)NC(=O)[C@H](CCC(=O)O)NC(=O)[C@H](CCCNC(=N)N)NC(=O)[C@H](Cc1ccccc1)NC(=O)[C@H](C)NC(=O)[C@H](Cc1ccc(O)cc1)NC(=O)[C@H](Cc1ccccc1)NC(=O)[C@H](Cc1c[nH]c2ccccc12)NC(=O)[C@H](CCC(=O)O)NC(=O)[C@H](CCC(=O)O)NC(=O)[C@H](CC(C)C)NC(=O)[C@H](CCCCN)NC(=O)[C@H](CO)NC(=O)[C@H](CCCNC(=N)N)NC(=O)[C@@H](NC(=O)[C@@H](N)CCC(=O)O)C(C)C)C(=O)N[C@@H](C)C(=O)N[C@@H](CCCNC(=N)N)C(=O)N[C@@H](CC(C)C)C(=O)N[C@@H](CCCCN)C(=O)N[C@@H](CO)C(=O)O [A11>Y11] (H-EVRSKLEEWFYAFREFAEEFLARLKS-OH)
pharmacokinetic properties compared to parent polypeptide [3]: identical pharmacokinetic properties

SEQ ID NO: 4/Y26: SEQ ID NO:4 with serine 26 replaced by tyrosine; iodinated version used for pharmacokinetics (EVRSKLEEWFAAFREFAEEFLARLKY; also: iodinated version used for pharmacokinetics)
Half-live ([4]; listed as SEQ ID NO: 4/Y26 peptide): 11.2 h
Half-live ([4]; modified to include a tyrosine at the C-terminus): about 11 hours
Half-live ([4]; which was modified to have a Y residue at the C-terminus): about 11.2 hours
distribution volume relative to plasma volume ([4]; IV): approximately twice as large as the plasma volume
Correlation ([4]; IV, 0-2.5 hours): −0.95
Half-live, first phase ([4]; IV, 0-2.5 hours): 4.5 h
Clearance ([4]; IV, 2.5-24 hours): 1.2 mL/h/kg
Half-live, terminal (second phase) ([4]; IV, 2.5-24 hours): 33.7 h
Volume of distribution ([4]; IV, 2.5-24 hours): 0.0557 L/kg
Half-live, terminal (second phase) ([4]; IV, 2.5-24 hours, modified to include a tyrosine at the C-terminus): about 34 hours
Half-live, terminal (second phase) ([4]; IV, 2.5-24 hours, which was modified to have a Y residue at the C-terminus): approximately 34 hours
antiatherosclerotic effect (whole aorta and aortic root/sinus) [5]: significant antiatherosclerotic effects
ABCA1-dependent cholesterol efflux (ABCA1 [2]; macrophages with vs without cAMP, listed as S26>Y): stimulated ABCA1 cholesterol efflux like the parent 26-mer polypeptide; also recorded: retained ABCA1-dependent cholesterol efflux activity
